Results: doi:10.1101/2024.03.15.585150 (bioRxiv, 2024)
Like-named read-outs stand apart in the source and are kept apart here. No end group written: not given here. *: point of attachment. Biotin = O=C1N[C@H]2[C@H](CS[C@H]2CCCCC(=O)*)N1

What was measured:
[1] = target: T1, KIX domain of CBP coactivator (KIX region 586-672) (UniProt P45481 586-672); assay: BLI
[2] = target: T1, KIX domain of CBP coactivator (KIX …); assay: BLI; remark: listed apart in the source

Row | Binder | Kd [1] | Kd [2]
1 | Biotin-GSNILPSDIMDFVLKNT [MLL peptide (MLL 9aaTAD), Biotin-GS-NILPSDIMDFVLKNT] | 1170 ± 210 nM | 
2 | Biotin-GSSGDVSWDTLDLDDLD [Sp1-Ac peptide (acidic form of Sp1 9aaTAD), Biotin-GSS-GDVSWDTLDLDDLD] |  | 9770 ± 1570 nM
3 | Biotin-GSSSTQLEMVTELLG [c-Myc peptide (c-Myc 9aaTAD), Biotin-GSSS-TQLEMVTELLG] | 2160 ± 1170 nM | 
4 | Biotin-GSSSEPPSWVTEMLLEN [N-Myc peptide (N-Myc 9aaTAD), Biotin-GSSS-EPPSWVTEMLLEN] | 880 ± 110 nM | 
